From publication PMC10557571 (bioRxiv, 2023) come the findings set out here.

This data set concerns the molecule itself. In words: SDS-PAGE under non-reducing and reducing conditions with anti-Flag western blot. (In general: Immunoblotting shows a protein as a band on a membrane.)

B1: Flag-tagged mature Activin E from Construct II (ligand, human, UniProt P58166 237-350, looked up)
chain: TPTCEPATPLCCRRDHYVDFQELGWRDWILQPEGYQLNYCSGQCPPHLAGSPGIAASFHSAVFSLLKANNPWPASTSCCVPTARRPLSLLYLDHNGNVVKTDVPDMVVEACGCS
As for B1, the “stoichiometry N” value came to 2.

B2: Unprocessed Activin E precursor from Construct I (natural protein, human, UniProt P58166 20-350, looked up)
chain: QGTGSVCPSCGGSKLAPQAERALVLELAKQQILDGLHLTSRPRITHPPPQAALTRALRRLQPGSVAPGNGEEVISFATVTDSTSAYSSLLTFHLSTPRSHHLYHARLWLHVLPTLPGTLCLRIFRWGPRRRRQGSRTLLAEHHITNLGWHTLTLPSSGLRGEKSGVLKLQLDCRPLEGNSTVTGQPRRLLDTAGHQQPFLELKIRANEPGAGRRRRRTPTCEPATPLCCRRDHYVDFQELGWRDWILQPEGYQLNYCSGQCPPHLAGSPGIAASFHSAVFSLLKANNPWPASTSCCVPTARRPLSLLYLDHNGNVVKTDVPDMVVEACGCS
For B2, the “stoichiometry N” value was found to be 2.

One may read the stoichiometry N as the number of molecules, sites or subunits per partner or assembly.
